Reference: patent publication US20260201389A1 (NATIONAL UNIVERSITY OF SINGAPORE, published 2026)
Numbering of substitutions follows the chain as printed.

Legend:
SMAD2 protein [1] = molecular target: T1, SMAD2 protein (mouse, UniProt Q62432 2-467); experiment: co-immunoprecipitation with anti-SMAD2 antibody from TGFβ1-stimulated mouse WT primary cardiac fibroblasts, western blot (FIG. 16D)
T1 construct: Endogenous protein in cell lysates

SMAD2 protein [2] = molecular target: T1, SMAD2 protein; experiment: co-immunoprecipitation with anti-FLAG antibody from NIH-3T3 lysates, western blot (FIG. 16C)

T1 sequence (Q62432 2-467 limits assumed): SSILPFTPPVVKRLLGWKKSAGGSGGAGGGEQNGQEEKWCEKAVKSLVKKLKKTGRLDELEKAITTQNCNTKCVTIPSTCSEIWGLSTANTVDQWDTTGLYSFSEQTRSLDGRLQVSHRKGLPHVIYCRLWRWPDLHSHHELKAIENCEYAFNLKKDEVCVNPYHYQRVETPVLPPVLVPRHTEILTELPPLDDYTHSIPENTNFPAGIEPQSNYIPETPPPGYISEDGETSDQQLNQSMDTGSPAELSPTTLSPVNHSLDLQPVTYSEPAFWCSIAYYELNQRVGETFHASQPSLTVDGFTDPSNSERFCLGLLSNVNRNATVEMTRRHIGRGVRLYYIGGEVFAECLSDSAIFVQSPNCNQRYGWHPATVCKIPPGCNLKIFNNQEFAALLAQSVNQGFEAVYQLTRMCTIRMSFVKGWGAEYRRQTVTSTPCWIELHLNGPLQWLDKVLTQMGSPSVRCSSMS

B1: WWP2-C, endogenous in mouse WT primary cardiac fibroblasts (enzyme, UniProt Q9DBH0 440-870, looked up)
chain: MIQEPALPPGWEMKYTSEGVRYFVDHNTRTTTFKDPRPGFESGTKQGSPGAYDRSFRWKYHQFRFLCHSNALPSHVKISVSRQTLFEDSFQQIMNMKPYDLRRRLYIIMRGEEGLDYGGIAREWFFLLSHEVLNPMYCLFEYAGKNNYCLQINPASSINPDHLTYFRFIGRFIAMALYHGKFIDTGFTLPFYKRMLNKRPTLKDLESIDPEFYNSIVWIKENNLEECGLELFFIQDMEILGKVTTHELKEGGENIRVTEENKEEYIMLLTDWRFTRGVEEQTKAFLDGFNEVAPLEWLRYFDEKELELMLCGMQEIDMSDWQKNAIYRHYTKSSKQIQWFWQVVKEMDNEKRIRLLQFVTGTCRLPVGGFAELIGSNGPQKFCIDRVGKETWLPRSHTCFNRLDLPPYKSYEQLKEKLLYAIEETEGFGQE
binding result (SMAD2 protein [1]): no binding

B2: FLAG-tagged WWP2-C (enzyme)
chain: B1 chain with F232Y, N254S, N324S, A325T, S333N, R386K, K415R
notes: Expressed from a plasmid in NIH-3T3 mouse fibroblasts; The position of the FLAG tag is unknown; also called WWP2-Flag isoforms; C-terminal isoform; not shown: FLAG tag
binding result (SMAD2 protein [2]): no binding
